We go through 1 substance from patent WO2021173674A1.

The target of assay [1] is HLA-A*02 complexed with MAGE-A12 112-120 (…) on cells. The assay is described as follows: cell-based or functional assay.
The target in assay [2] is HLA-A*02 complexed with EPS8L2 339-347 (…) on cells. The assay is described as follows: cell-based or functional assay.

“A118T TCR (MAGE-A3 112-120 clinical TCR)” displayed a potency in Jurkat/T2 cell assays, against the on-target MAGE-A3 peptide in assay [1] of 10 fold. In assay [2], this substance registered an EC50 in primary human T cell cytotoxicity on peptide-loaded MCF7 cells, against the on-target EC50 below 10 fold and a fold decrease in potency in Jurkat/T2 cell assays, against the on-target MAGE-A3 peptide of 500 fold.
